Substrate in data set [1]: CC(C)=CCC/C(C)=C/CC/C(C)=C/CC/C=C(\C)CC/C=C(\C)CCC=C(C)C
Put plainly: cells, lysate or membranes named. The note with it: other: SQLE baculosome; varied squalene, saturating FAD; pH 7.0.

Substrate in data set [2]: CC(C)=CCC/C(C)=C/CC/C(C)=C/CC/C=C(\C)CC/C=C(\C)CCC=C(C)C
Put plainly: purified protein, by the assay type. The following applies: varied squalene, saturating FAD.

B1: baculosome-derived full-length SQLE (Homo sapiens) (protein)
chain: MWTFLGIATFTYFYKKFGDFITLANREVLLCVLVFLSLGLVLSYRCRHRNGGLLGRQQSGSQFALFSDILSGLPFIGFFWAKSPPESENKEQLEARRRRKGTNISETSLIGTAACTSTSSQNDPEVIIVGAGVLGSALAAVLSRDGRKVTVIERDLKEPDRIVGEFLQPGGYHVLKDLGLGDTVEGLDAQVVNGYMIHDQESKSEVQIPYPLSENNQVQSGRAFHHGRFIMSLRKAAMAEPNAKFIEGVVLQLLEEDDVVMGVQYKDKETGDIKELHAPLTVVADGLFSKFRKSLVSNKVSVSSHFVGFLMKNAPQFKANHAELILANPSPVLIYQISSSETRVLVDIRGEMPRNLREYMVEKIYPQIPDHLKEPFLEATDNSHLRSMPASFLPPSSVKKRGVLLLGDAYNMRHPLTGGGMTVAFKDIKLWRKLLKGIPDLYDDAAIFEAKKSFYWARKTSHSFVVNILAQALYELFSATDDSLHQLRKACFLYFKLGGECVAGPVGLLSVLSPNPLVLIGHFFAVAIYAVYFCFKSEPWITKPRALLSSGAVLYKACSVIFPLIYSEMKYMVH
As for B1, in data set [1], the Km (usually the substrate concentration at which the rate is half of its maximum) was found to be 3.3 ± 0.7 µM; the kcat – broadly, the number of substrate molecules converted per active site and unit of time at saturation – stood at 0.0233 s⁻¹; the kcat/Km (in general, the turnover number divided by the Michaelis constant) was determined as 7080 M⁻¹ s⁻¹.

B2: endogenous SQLE in human liver microsomes (Homo sapiens) (protein)
chain: MWTFLGIATFTYFYKKFGDFITLANREVLLCVLVFLSLGLVLSYRCRHRNGGLLGRQQSGSQFALFSDILSGLPFIGFFWAKSPPESENKEQLEARRRRKGTNISETSLIGTAACTSTSSQNDPEVIIVGAGVLGSALAAVLSRDGRKVTVIERDLKEPDRIVGEFLQPGGYHVLKDLGLGDTVEGLDAQVVNGYMIHDQESKSEVQIPYPLSENNQVQSGRAFHHGRFIMSLRKAAMAEPNAKFIEGVVLQLLEEDDVVMGVQYKDKETGDIKELHAPLTVVADGLFSKFRKSLVSNKVSVSSHFVGFLMKNAPQFKANHAELILANPSPVLIYQISSSETRVLVDIRGEMPRNLREYMVEKIYPQIPDHLKEPFLEATDNSHLRSMPASFLPPSSVKKRGVLLLGDAYNMRHPLTGGGMTVAFKDIKLWRKLLKGIPDLYDDAAIFEAKKSFYWARKTSHSFVVNILAQALYELFSATDDSLHQLRKACFLYFKLGGECVAGPVGLLSVLSPNPLVLIGHFFAVAIYAVYFCFKSEPWITKPRALLSSGAVLYKACSVIFPLIYSEMKYMVH
Consider B2, for which the Km in data set [2] (other: HLMs) was determined as 2.9 ± 0.2 µM.

B3: recombinant N-terminally truncated SQLE (118–574) (Homo sapiens) (protein)
chain: TSSQNDPEVIIVGAGVLGSALAAVLSRDGRKVTVIERDLKEPDRIVGEFLQPGGYHVLKDLGLGDTVEGLDAQVVNGYMIHDQESKSEVQIPYPLSENNQVQSGRAFHHGRFIMSLRKAAMAEPNAKFIEGVVLQLLEEDDVVMGVQYKDKETGDIKELHAPLTVVADGLFSKFRKSLVSNKVSVSSHFVGFLMKNAPQFKANHAELILANPSPVLIYQISSSETRVLVDIRGEMPRNLREYMVEKIYPQIPDHLKEPFLEATDNSHLRSMPASFLPPSSVKKRGVLLLGDAYNMRHPLTGGGMTVAFKDIKLWRKLLKGIPDLYDDAAIFEAKKSFYWARKTSHSFVVNILAQALYELFSATDDSLHQLRKACFLYFKLGGECVAGPVGLLSVLSPNPLVLIGHFFAVAIYAVYFCFKSEPWITKPRALLSSGAVLYKACSVIFPLIYSEMKYMVH
In the case of B3, in data set [2] (other: SQLE (118–574), pH 8.0), the Km came to 1.9 ± 0.4 µM, the kcat was found to be 0.0348 s⁻¹ and the kcat/Km amounted to 18300 M⁻¹ s⁻¹.

The record behind these values is article PMC6327030, “Structure and inhibition mechanism of the catalytic domain of human squalene epoxidase” (Nature Communications, 2019).
